Read-outs that look alike come from different tables or passages of the source. Ends that are not written are not given here.
Tests used:
human RR = biological target: T1, human RR (Homo sapiens, UniProt P23921); details: background, "about"; cited from earlier work
T1 sequence (P23921 1-792): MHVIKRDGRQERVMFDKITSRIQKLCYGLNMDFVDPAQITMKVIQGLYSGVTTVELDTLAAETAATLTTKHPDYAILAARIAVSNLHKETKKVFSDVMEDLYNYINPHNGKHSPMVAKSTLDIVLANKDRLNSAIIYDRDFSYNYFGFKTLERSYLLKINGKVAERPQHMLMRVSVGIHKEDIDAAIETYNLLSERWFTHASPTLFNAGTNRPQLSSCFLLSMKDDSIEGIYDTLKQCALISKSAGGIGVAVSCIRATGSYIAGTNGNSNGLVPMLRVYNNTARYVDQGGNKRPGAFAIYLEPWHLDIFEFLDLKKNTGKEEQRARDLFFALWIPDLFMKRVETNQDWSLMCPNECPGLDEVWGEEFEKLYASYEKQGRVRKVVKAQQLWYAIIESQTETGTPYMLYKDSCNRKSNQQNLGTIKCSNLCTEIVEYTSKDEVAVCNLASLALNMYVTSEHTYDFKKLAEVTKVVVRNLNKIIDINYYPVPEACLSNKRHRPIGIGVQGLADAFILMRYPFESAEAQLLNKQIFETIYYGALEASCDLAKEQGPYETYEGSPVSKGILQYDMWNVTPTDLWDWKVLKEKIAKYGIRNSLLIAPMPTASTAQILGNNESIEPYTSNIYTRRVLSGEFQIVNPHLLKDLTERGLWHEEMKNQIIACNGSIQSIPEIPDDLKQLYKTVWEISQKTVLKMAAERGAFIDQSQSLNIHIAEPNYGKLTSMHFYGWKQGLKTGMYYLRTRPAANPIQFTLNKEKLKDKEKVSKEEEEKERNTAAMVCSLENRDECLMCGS

[1] = biological target: T2, calf thymus/mouse ribonucleotide reductase (mammalian RR) (Bos taurus, UniProt Q32LP1); test: biochemical
T2 sequence (Q32LP1 1-791): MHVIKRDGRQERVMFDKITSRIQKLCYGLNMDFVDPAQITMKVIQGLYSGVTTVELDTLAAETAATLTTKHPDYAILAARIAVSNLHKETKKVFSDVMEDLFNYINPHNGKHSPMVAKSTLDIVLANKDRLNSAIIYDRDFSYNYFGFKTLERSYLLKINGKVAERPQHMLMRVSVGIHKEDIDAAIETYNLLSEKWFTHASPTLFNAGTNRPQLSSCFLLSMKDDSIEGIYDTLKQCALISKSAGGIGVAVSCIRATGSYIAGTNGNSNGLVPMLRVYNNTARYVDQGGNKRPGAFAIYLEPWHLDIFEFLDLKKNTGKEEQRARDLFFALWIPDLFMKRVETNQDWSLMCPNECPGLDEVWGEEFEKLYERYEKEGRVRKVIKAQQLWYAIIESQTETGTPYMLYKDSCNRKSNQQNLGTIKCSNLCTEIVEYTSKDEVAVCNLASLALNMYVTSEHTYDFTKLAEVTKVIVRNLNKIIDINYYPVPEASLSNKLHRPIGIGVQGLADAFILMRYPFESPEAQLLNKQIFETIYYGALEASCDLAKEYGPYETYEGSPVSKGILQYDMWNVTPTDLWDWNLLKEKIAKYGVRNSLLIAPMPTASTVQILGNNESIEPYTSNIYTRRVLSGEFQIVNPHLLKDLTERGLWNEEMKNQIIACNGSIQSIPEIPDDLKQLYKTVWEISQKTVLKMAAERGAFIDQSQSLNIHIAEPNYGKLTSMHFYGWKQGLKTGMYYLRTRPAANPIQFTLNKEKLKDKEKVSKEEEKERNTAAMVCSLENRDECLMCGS
Description: From two to four assays were run

calf thymus R1 (calf) [2] = biological target: calf thymus R1 (calf)
[3] = biological target: S. cerevisiae (yeast) RR (S. cerevisiae)
calf thymus R1 (calf) [4] = biological target: calf thymus R1 (calf); remark: listed apart in the source
calf thymus R1 (calf) [5] = biological target: calf thymus R1 (calf); remark: listed apart in the source

Molecule: Ac-FTLDADF [Peptide 4, Ac- (FTLDADF), reference compound]
- IC50 (human RR): 10 to 20 µM
- IC50 [1]: 8 to 20 µM
- IC50 ([1]; IC50, Mammalian RR, Table 5, mammalian RR, Dixon plots): 8 to 20 µM
- IC50 ([1]; IC50 on mammalian RR activity, Example 54 text, peptide bound to purified calf thymus R1 before adding recombinant mouse R2): 10 to 20 µM

B1: Ac-(TFNEDF) (peptide)
peptide: Ac-TFNEDF
- IC50, inhibition of mammalian RR activity (calf thymus R1 (calf) [2]): 600 µM
- IC50, inhibition of Yeast RR activity [3]: 600 µM

B2: Ac-(…) (peptide)
peptide: Ac-AGAFTFNEDF
- IC50, inhibition of Yeast RR activity [3]: 25 µM

B3: Ac-(FTLDADF) (peptide)
peptide: Ac-FTLDADF
- IC50, inhibition of Yeast RR activity [3]: 25 µM
- Percent RI (percent relative inhibitory potency), mammalian RR activity (calf thymus R1 (calf) [4]): 100%
- IC50, inhibition of mammalian RR activity (calf thymus R1 (calf) [5]): 10 to 20 µM

B4: Ac-(FTFNEDF) (peptide)
peptide: Ac-FTFNEDF
- IC50, inhibition of mammalian RR activity (calf thymus R1 (calf) [2]): 100 µM
- IC50, inhibition of Yeast RR activity [3]: 25 µM

Source: patent publication US5459063A, “Plasmodium falciparum ribonucleotide reductase DNA” (priority 1993, dated 1995)
